Residue numbers refer to the chain shown, from its start. Numbers in names are those of the source. Marks after values point to notes of the source that are not given here.
Tests used:
[1] = Transamidation of FA-Arg-Ala-OH, Table 6; assay type: biochemical; conditions: [S] = 2 mM; H-Leu-NH2 375 mM; pH 7.5; [E] 0.1 mg/mL
[2] = Transamidation of Bz-G-A-R-A-R-A-OH, Table 6; assay type: biochemical; conditions: [S] = 2 mM; H-Leu-NH2 375 mM; pH 7.5; [E] 0.1 mg/mL
Experimental: (§1) Transamidation reactions were carried out generally as described in PCT Application WO 95/20039. In general, the method included dissolving the nucleophile (H-Leu-NH2, unless otherwise indicated) in 50 mM HEPES, 5 mM EDTA and adjusting the pH to 7.5, 5 μl of peptide substrate (8 mM Bz-G-A-R-A-R-A-OH, unless otherwise indicated, in methanol) was added to 190 μl nucleophile solution followed by 5 μl enzyme, […]
(§2) During the reaction, 20 μl aliquots were removed from the reaction mixture and added to 50 μl 1% trifluoroacetic acid to quench the reaction. The reactant composition was determined by HPLC using a Waters HPLC equipped with a C-18 Waters Novapac 4μ reverse phase column and various gradients of acetonitrile in 0.1% trifluoroacetic acid. The separation was monitored at 254 nm allowing the direct quantification of the products from the integrated peak areas. The composition of the reaction mixture was determined at least twvice during the reaction, the first when 20-50% (preferably 35%) of the substrate had been consumed in the reaction and the second time when 50-90% (preferably 80%) of the peptide substrate had been consumed.
(§3) The fraction of aminolysis (fa) was expressed as the ratio between the formed aminolysis product and the sum of all products formed. Unconsumed substrate was disregarded in the calculations.
Site specific mutagenesis was performed as described for Example 1 to generate the specific mutants described below. Transamidation reactions were performed as described in the previous examples.

[3] = Transamidation of Bz-G-A-R-A-R-A-OH, Table 6; assay type: biochemical; conditions: [S] = 2 mM; H-Leu-NH2 375 mM; pH 7.5; [E] 0.1 mg/mL; remark: listed apart in the source
[4] = Transpeptidation of Bz-G-A-R-A-R-X-OH at pH 7.5 at 50% substrate consumption, Table 4; assay type: biochemical; parameters: key to fa: fraction: aminolysis product / sum of all products formed; conditions: for Pmax (peak product yield) / fa: 375 mM H-Leu-NH2
In short: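 Transamidation was performed by dissolving the H-Leu-NH2 nucleophile in 50 mM HEPES with 5 mM EDTA at pH 7.5, then adding the Bz-G-A-R-A-R-X-OH peptide substrate in methanol followed by enzyme. Aliquots were quenched in 1% trifluoroacetic acid and analysed by C-18 reverse-phase HPLC at 254 nm. The fraction of aminolysis was the aminolysis product divided by all products formed.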

[5] = Transpeptidation of Bz-G-A-R-A-R-X-OH at pH 6.5 at 50% substrate consumption, Table 5; assay type: biochemical; parameters: key to fa: fa = aminolysis product / sum of all products formed; conditions: for Pmax (peak product yield) / fa: 750 mM H-Leu-NH2; for fa / t: 50% substrate consumption; for t: 750 mM H-Leu-NH2, 2 mM substrate, [E] 0.1 mg/mL
Experimental: Transamidation reactions were carried out generally as described in PCT Application WO 95/20039. In general, the method included dissolving the nucleophile (H-Leu-NH2, unless otherwise indicated) in 50 mM HEPES, […], 5 μl of peptide substrate (8 mM Bz-G-A-R-A-R-A-OH, unless otherwise indicated, in methanol) was added to 190 μl nucleophile solution followed by 5 μl enzyme, resulting in a substrate concentration of 0.2 mM.
as §2
The fraction of aminolysis (fa) was expressed as the ratio between the formed aminolysis product and the sum of all products formed. Unconsumed substrate was disregarded in the calculations. […]

[6] = Transpeptidation of Bz-G-A-R-A-R-A-OH (arginine at P1) with H-Leu-NH2, Table 1; assay type: biochemical; conditions: [N] 375 mM H-Leu-NH2; 2mM substrate; pH 7.5; [E] 0.1 mg/mL
Experimental: The mutant carboxypeptidase enzvmes used in these studies were produced by site-directed mutagenesis, essentially following the procedures described in published PCT Patent Application No. WO 95/20039. In general, oligonucleotides synthesized to encode the amino acid substitution were used to produce the mutant enzymes.
as §1, §2
The reaction products were collected and identified by amino acid analysis after acid hydrolysis using a Pharmacia Alpha Plus analyzer. Further identification was obtained by co-chromatography of authentic standard compounds.
as §3

[7] = Transpeptidation of FA-Ala-Xaa-OH with H-Gly-NH2, Table 2; assay type: biochemical; conditions: 1.9 M H-Gly-NH2, pH 7.5, room temperature
In short: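 Enzyme reacted with 0.2 mM peptide substrate and nucleophile in 50 mM HEPES, 5 mM EDTA, pH 7.5; aliquots quenched in 1% TFA. Products quantified by reverse-phase HPLC at 254 nm at two conversion points (20-50% and 50-90% substrate consumed). Fraction of aminolysis = aminolysis product over all products, ignoring unconsumed substrate.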

[8] = ratio of hydrolysis rates, background statement; cited from earlier work
[9] = Transpeptidation of FA-Ala-OBzl with H-Leu-NH2, Table 3; assay type: biochemical; conditions: FA-Ala-OBzl 0.2 mM; H-Leu-NH2; pH 7.5
In short: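 Site-directed mutant enzymes were reacted with H-Leu-NH2 in 50 mM HEPES, 5 mM EDTA, pH 7.5, with acyl-donor substrate at 0.2 mM final. Products were quantified by C-18 RP-HPLC at 254 nm at about 35% and 80% substrate consumption. fa is aminolysis product over all products; famax is fa at nucleophile saturation, and KN(app) is the nucleophile concentration giving famax/2.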

[10] = leaving group A, 50% substrate consumption
[11] = leaving group A, 50% substrate consumption, 375 mM H-Leu-NH2, 2 mM substrate, [E] 0.1 mg/mL
[12] = leaving group I, 50% substrate consumption
[13] = leaving group L, 50% substrate consumption
[14] = leaving group M, 50% substrate consumption
[15] = leaving group V, 50% substrate consumption

B1: L178S: carboxypeptidase Y S1 mutant, substitution L178S (protein, UniProt P00729 112-532, looked up, variant L178S)
Carboxypeptidase Y: KIKDPKILGIDPNVTQYTGYLDVEDEDKHFFFWTFESRNDPAKDPVILWLNGGPGCSSLTGLFFELGPSSIGPDLKPIGNPYSWNSNATVIFLDQPVNVGFSYSGSSGVSNTVAAGKDVYNFLELFFDQFPEYVNKGQDFHIAGESYAGHYIPVFASEILSHKDRNFNLTSVLIGNGSTDPLTQYNYYEPMACGEGGEPSVLPSEECSAMEDSLERCLGLIESCYDSQSVWSCVPATIYCNNAQLAPYQRTGRNVYDIRKDCEGGNLCYPTLQDIDDYLNQDYVKEAVGAEVDHYESCNFDINRNFLFAGDWMKPYHTAVTDLLNQDLPILVYAGDKDFICNWLGNKAWTDVLPWKYDEEFASQKVRNWTASITDEVAGEVKSYKHFTYLRVFNGGHMVPFDVPENALSMVNEWIHGGFSL
[1]
  Pmax: 0.76
  fa: 0.89
[2]
  Pmax: 0.61
[3]
  fa: 0.77
[4]; leaving group A
  Pmax (peak product yield): 0.63
[4]; [10]
  fa: 0.73
[4]; [11]
  t: 14 min
[4]; leaving group I
  Pmax (peak product yield): 0
[4]; [12]
  fa: 0
[4]; leaving group I, 50% substrate consumption, 375 mM H-Leu-NH2, 2 mM substrate, [E] 0.1 mg/mL
  t: 26 min
[4]; leaving group L
  Pmax (peak product yield): 0.01
[4]; [13]
  fa: 0.01
[4]; leaving group L, 50% substrate consumption, 375 mM H-Leu-NH2, 2 mM substrate, [E] 0.1 mg/mL
  t: 2.1 min
[4]; leaving group M
  Pmax (peak product yield): 0
[4]; [14]
  fa: 0
[4]; leaving group M, 50% substrate consumption, 375 mM H-Leu-NH2, 2 mM substrate, [E] 0.1 mg/mL
  t: 28 min
[4]; leaving group S
  Pmax (peak product yield): 0.38
[4]; leaving group S, 50% substrate consumption
  fa: 0.65
[4]; leaving group S, 50% substrate consumption, 375 mM H-Leu-NH2, 2 mM substrate, [E] 0.1 mg/mL
  t: 790 min
[4]; leaving group V
  Pmax (peak product yield): 0
[4]; [15]
  fa: 0
[4]; leaving group V, 50% substrate consumption, 375 mM H-Leu-NH2, 2 mM substrate, [E] 0.1 mg/mL
  t: 40 min
[5]; leaving group A
  Pmax (peak product yield): 0.74
  fa: 0.79
  t: 34 min
[5]; leaving group L
  Pmax (peak product yield): 0.03
  fa: 0.03
  t: 17 min
[5]; leaving group S
  Pmax (peak product yield): 0.63
  fa: 0.34
  t: 108 min
[6]
  fa (fraction of aminolysis): 0.72

B2: Wild type: wild type (native) carboxypeptidase Y (protein, UniProt P00729 112-532, looked up)
Carboxypeptidase Y: B1 Carboxypeptidase Y with S178L
[7]; FA-Ala-Ala-OH 0.2 mM
  Fraction of aminolysis (fa), P1' Ala: 0.90
[7]; FA-Ala-Leu-OH 0.2 mM
  Fraction of aminolysis (fa), P1' Leu: 0.20
[7]; FA-Ala-Met-OH 0.2 mM
  Fraction of aminolysis (fa), P1' Met: 0.18
[7]; FA-Ala-Phe-OH 0.2 mM
  Fraction of aminolysis (fa), P1' Phe: 0.04
[7]; FA-Ala-Val-OH 0.2 mM
  Fraction of aminolysis (fa), P1' Val: 0.16
[8]
  FA-Arg-Ala-OH hydrolyzed more slowly than FA-Leu-Ala-OH: about 500 times
[9]
  fa: 0.95^a
[4]; leaving group A
  Pmax (peak product yield): 0
[4]; [10]
  fa: <0.05
[4]; [11]
  t(min): ca. 110000 min
[4]; leaving group I
  Pmax (peak product yield): 0
[4]; [12]
  fa: <0.05
[4]; leaving group L
  Pmax (peak product yield): 0
[4]; [13]
  fa: <0.05
[4]; leaving group M
  Pmax (peak product yield): 0
[4]; [14]
  fa: <0.05
[4]; leaving group V
  Pmax (peak product yield): 0
[4]; [15]
  fa: <0.05
[6]
  fa (fraction of aminolysis): 0.05

Reference: US20010010923A1, “MODIFIED CARBOXYPEPTIDASE” (priority 1997, published 2001)
